Target: T1, biotinylated-ShhN-Cys (Homo sapiens, UniProt Q15465)
T1 construct: ShhN-Cys (residues 24-197); His6 (N); made in house; host or cells: E. coli Rosetta 2
Assay: Bio-layer interferometry (Octet) binding kinetics of Hhip1β12 variants to Shh
Settings: for Kd / koff × 10^−4 / kon × 10^3: 1:1 binding model, n.d stands for no binding detected; for Shh binding of Hhip1β12 mutants (in words): bio-layer interferometry, compared with WT Hhip1β12
Procedure: The binding kinetics of the Hhip1β12 fragments as well as Hhip1β12 mutants were measured by bio-layer interferometry in the presence or absence of 10 mM EDTA on an Octet (Fortébio). Streptavidin high binding FA biosensors were loaded with biotinylated-ShhN-Cys in kinetic buffer (Fortébio). The loaded biosensors were washed and transferred to wells containing Hhip1β12 protein at concentrations of 1.2, 1.0, 0.8 and 0.6 μM in kinetic buffer. Hhip1β12 association and dissociation was measured for 30 and 20 min, respectively. Kinetic parameters (kon and koff) and affinities (KD) were calculated from a non-linear fit of the data based on a 1:1 binding model between Hhip1β12 and Shh using the Octet software. Multiple independent measurements were performed.
In order to assess the contribution of residues in the Hhip1 L1, L2 and L3 loops for binding to Shh, a series of single alanine Hipβ12 mutants were made using the QuickChange DNA mutagenesis kit (Stratagene) using the manufacturer's protocol, and their affinity for Shh was measured by bio-layer interferometry (as described in Example 2B). These mutations included Hhip1β12 mutants 1312A, E381A, M382A, D383A, D378A, T418A, Q420A, E380A, D387A and ΔL2.

Row | Kd [nM] | koff × 10^−4 | kon × 10^3 | Shh binding of Hhip1β12 mutants (in words) | Shh binding of Hhip1β12 mutants (in words) (listed as E380) | Molecule
1 |  |  |  | minor to moderate effects on Shh binding | abolished binding to Shh | E380A: L2 loop single alanine variant made in the Hhip1β12 construct (protein) SNYLDQMEEYDKVEEISRKHKHNCFCIQEVVSGLRQPVGALHSGDGSQRLFILEKEGYVKILTPEGEIFKEPYLDIHKLVQSGIKGGDERGLLSLAFHPNYKKNGKLYVSYTTNQERWAIGPHDHILRVVEYTVSRKNPHQVDLRTARVFLEVAELHRKHLGGQLLFGPDGFLYIILGDGMITLDDMAEMDGLSDFTGSVLRLDVDTDMCNVPYSIPRSNPHFNSTNQPPEVFAHGLHDPGRCAVDRHPTDININLTILCSDSNGKNRSSARILQIIKGKDYESEPSLLEFKPFSNGPLVGGFVYRGCQSERLYGSYVFGDRNGNFLTLQQSPVTKQWQEKPLCLGTSGSCRGYFSGHILGFGEDELGEVYILSSSKSMTQTHNGKLYKIVDPKRPLMPEECRATVQPAQTLTSECSRLCRNGYCTPTGKCCCSPGWEGDFCRTAKCEPACRHGGVCVRPNKCLCKKGYLGPQCEHHHHHH
2 |  |  |  | abolished binding to Shh |  | M382A: L2 loop single alanine variant made in the Hhip1β12 construct (protein) SNYLDQMEEYDKVEEISRKHKHNCFCIQEVVSGLRQPVGALHSGDGSQRLFILEKEGYVKILTPEGEIFKEPYLDIHKLVQSGIKGGDERGLLSLAFHPNYKKNGKLYVSYTTNQERWAIGPHDHILRVVEYTVSRKNPHQVDLRTARVFLEVAELHRKHLGGQLLFGPDGFLYIILGDGMITLDDMEEADGLSDFTGSVLRLDVDTDMCNVPYSIPRSNPHFNSTNQPPEVFAHGLHDPGRCAVDRHPTDININLTILCSDSNGKNRSSARILQIIKGKDYESEPSLLEFKPFSNGPLVGGFVYRGCQSERLYGSYVFGDRNGNFLTLQQSPVTKQWQEKPLCLGTSGSCRGYFSGHILGFGEDELGEVYILSSSKSMTQTHNGKLYKIVDPKRPLMPEECRATVQPAQTLTSECSRLCRNGYCTPTGKCCCSPGWEGDFCRTAKCEPACRHGGVCVRPNKCLCKKGYLGPQCEHHHHHH

Continued, molecule first:

Row | Molecule | Kd [nM] | koff × 10^−4 | kon × 10^3 | Shh binding of Hhip1β12 mutants (in words) | Shh binding of Hhip1β12 mutants (in words) (listed as E380)
3 | T418A: L3 loop single alanine variant made in the Hhip1β12 construct (protein) SNYLDQMEEYDKVEEISRKHKHNCFCIQEVVSGLRQPVGALHSGDGSQRLFILEKEGYVKILTPEGEIFKEPYLDIHKLVQSGIKGGDERGLLSLAFHPNYKKNGKLYVSYTTNQERWAIGPHDHILRVVEYTVSRKNPHQVDLRTARVFLEVAELHRKHLGGQLLFGPDGFLYIILGDGMITLDDMEEMDGLSDFTGSVLRLDVDTDMCNVPYSIPRSNPHFNSANQPPEVFAHGLHDPGRCAVDRHPTDININLTILCSDSNGKNRSSARILQIIKGKDYESEPSLLEFKPFSNGPLVGGFVYRGCQSERLYGSYVFGDRNGNFLTLQQSPVTKQWQEKPLCLGTSGSCRGYFSGHILGFGEDELGEVYILSSSKSMTQTHNGKLYKIVDPKRPLMPEECRATVQPAQTLTSECSRLCRNGYCTPTGKCCCSPGWEGDFCRTAKCEPACRHGGVCVRPNKCLCKKGYLGPQCEHHHHHH | 270 | 9.0 × 10^−4 [s^−1] | 3.4 × 10^3 [M^−1 × s^−1] | little effect on Shh | 
4 | Q420A: L3 loop single alanine variant made in the Hhip1β12 construct (protein) SNYLDQMEEYDKVEEISRKHKHNCFCIQEVVSGLRQPVGALHSGDGSQRLFILEKEGYVKILTPEGEIFKEPYLDIHKLVQSGIKGGDERGLLSLAFHPNYKKNGKLYVSYTTNQERWAIGPHDHILRVVEYTVSRKNPHQVDLRTARVFLEVAELHRKHLGGQLLFGPDGFLYIILGDGMITLDDMEEMDGLSDFTGSVLRLDVDTDMCNVPYSIPRSNPHFNSTNAPPEVFAHGLHDPGRCAVDRHPTDININLTILCSDSNGKNRSSARILQIIKGKDYESEPSLLEFKPFSNGPLVGGFVYRGCQSERLYGSYVFGDRNGNFLTLQQSPVTKQWQEKPLCLGTSGSCRGYFSGHILGFGEDELGEVYILSSSKSMTQTHNGKLYKIVDPKRPLMPEECRATVQPAQTLTSECSRLCRNGYCTPTGKCCCSPGWEGDFCRTAKCEPACRHGGVCVRPNKCLCKKGYLGPQCEHHHHHH | 500 | 11.0 × 10^−4 [s^−1] | 2.1 × 10^3 [M^−1 × s^−1] | little effect on Shh | 
5 | E381A: L2 loop single alanine variant made in the Hhip1β12 construct (protein) SNYLDQMEEYDKVEEISRKHKHNCFCIQEVVSGLRQPVGALHSGDGSQRLFILEKEGYVKILTPEGEIFKEPYLDIHKLVQSGIKGGDERGLLSLAFHPNYKKNGKLYVSYTTNQERWAIGPHDHILRVVEYTVSRKNPHQVDLRTARVFLEVAELHRKHLGGQLLFGPDGFLYIILGDGMITLDDMEAMDGLSDFTGSVLRLDVDTDMCNVPYSIPRSNPHFNSTNQPPEVFAHGLHDPGRCAVDRHPTDININLTILCSDSNGKNRSSARILQIIKGKDYESEPSLLEFKPFSNGPLVGGFVYRGCQSERLYGSYVFGDRNGNFLTLQQSPVTKQWQEKPLCLGTSGSCRGYFSGHILGFGEDELGEVYILSSSKSMTQTHNGKLYKIVDPKRPLMPEECRATVQPAQTLTSECSRLCRNGYCTPTGKCCCSPGWEGDFCRTAKCEPACRHGGVCVRPNKCLCKKGYLGPQCEHHHHHH | 300 | 3.3 × 10^−4 [s^−1] | 1.1 × 10^3 [M^−1 × s^−1] |  | 
6 | D378A: L2 loop single alanine variant made in the Hhip1β12 construct (protein) SNYLDQMEEYDKVEEISRKHKHNCFCIQEVVSGLRQPVGALHSGDGSQRLFILEKEGYVKILTPEGEIFKEPYLDIHKLVQSGIKGGDERGLLSLAFHPNYKKNGKLYVSYTTNQERWAIGPHDHILRVVEYTVSRKNPHQVDLRTARVFLEVAELHRKHLGGQLLFGPDGFLYIILGDGMITLDAMEEMDGLSDFTGSVLRLDVDTDMCNVPYSIPRSNPHFNSTNQPPEVFAHGLHDPGRCAVDRHPTDININLTILCSDSNGKNRSSARILQIIKGKDYESEPSLLEFKPFSNGPLVGGFVYRGCQSERLYGSYVFGDRNGNFLTLQQSPVTKQWQEKPLCLGTSGSCRGYFSGHILGFGEDELGEVYILSSSKSMTQTHNGKLYKIVDPKRPLMPEECRATVQPAQTLTSECSRLCRNGYCTPTGKCCCSPGWEGDFCRTAKCEPACRHGGVCVRPNKCLCKKGYLGPQCEHHHHHH | 2400 | 3.6 × 10^−4 [s^−1] | 0.15 × 10^3 [M^−1 × s^−1] | minor to moderate effects on Shh binding | 
7 | D387A: L2 loop single alanine variant made in the Hhip1β12 construct (protein) SNYLDQMEEYDKVEEISRKHKHNCFCIQEVVSGLRQPVGALHSGDGSQRLFILEKEGYVKILTPEGEIFKEPYLDIHKLVQSGIKGGDERGLLSLAFHPNYKKNGKLYVSYTTNQERWAIGPHDHILRVVEYTVSRKNPHQVDLRTARVFLEVAELHRKHLGGQLLFGPDGFLYIILGDGMITLDDMEEMDGLSAFTGSVLRLDVDTDMCNVPYSIPRSNPHFNSTNQPPEVFAHGLHDPGRCAVDRHPTDININLTILCSDSNGKNRSSARILQIIKGKDYESEPSLLEFKPFSNGPLVGGFVYRGCQSERLYGSYVFGDRNGNFLTLQQSPVTKQWQEKPLCLGTSGSCRGYFSGHILGFGEDELGEVYILSSSKSMTQTHNGKLYKIVDPKRPLMPEECRATVQPAQTLTSECSRLCRNGYCTPTGKCCCSPGWEGDFCRTAKCEPACRHGGVCVRPNKCLCKKGYLGPQCEHHHHHH |  |  |  | abolished binding to Shh | 

From patent US8623997B2, “Variant Hhip1 protein and methods and uses thereof” (Curis, Inc., priority 2008, dated 2014)
